Source: patent US20240301069A1

Legend:
[1] = target: macaque PD-L1 on CHO-cynoPD-L1 stable cells (macaque); experiment: flow cytometry, antibody titration on CHO-cynoPD-L1 cells, MFI-APC
[2] = target: human PD-L1 full-length protein on CHO-hPD-L1 stable cells (human) (UniProt Q9NZQ7); experiment: flow cytometry, antibody titration on CHO-hPD-L1 cells, MFI-APC
[3] = target: recombinant human PD-L1 protein carrying a hFc label (human) (UniProt Q9NZQ7); experiment: flow cytometry blocking assay (method 2): antibody titrated; binding of recombinant human PD-L1-hFc to PD-1 on CHO-hPD-1 cells is blocked
[4] = target: human PD-L1 on IFNγ-stimulated A375 cells (human) (UniProt Q9NZQ7); experiment: flow cytometry, antibody titration on human IFNγ-stimulated A375 cells, MFI-APC
[5] = target: human PD-L1 full-length protein on CHO-hPD-L1 stable cells (human) (UniProt Q9NZQ7); experiment: flow cytometry blocking assay: antibody titrated on CHO-hPD-L1 cells; blocked ligand recombinant human CD80-hFc
[6] = target: human PD-L1 full-length protein on CHO-hPD-L1 stable cells (human) (UniProt Q9NZQ7); experiment: flow cytometry blocking assay (method 1): antibody titrated on CHO-hPD-L1 cells; blocked ligand recombinant human PD-1-hFc

Chain of human PD-L1 full-length protein on CHO-hPD-L1 stable cells (human) (Q9NZQ7 19-290 limits assumed): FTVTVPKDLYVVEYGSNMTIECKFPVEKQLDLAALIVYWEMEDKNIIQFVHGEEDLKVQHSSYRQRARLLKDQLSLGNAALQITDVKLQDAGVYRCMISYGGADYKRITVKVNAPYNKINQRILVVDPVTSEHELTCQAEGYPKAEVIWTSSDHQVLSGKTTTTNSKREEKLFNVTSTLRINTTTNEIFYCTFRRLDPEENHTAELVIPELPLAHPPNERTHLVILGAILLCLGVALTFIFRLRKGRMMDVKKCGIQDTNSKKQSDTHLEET
Chain of macaque PD-L1 on CHO-cynoPD-L1 stable cells (macaque) (Q9NZQ7 other isoform, or with tags, fused parts or gaps limits assumed): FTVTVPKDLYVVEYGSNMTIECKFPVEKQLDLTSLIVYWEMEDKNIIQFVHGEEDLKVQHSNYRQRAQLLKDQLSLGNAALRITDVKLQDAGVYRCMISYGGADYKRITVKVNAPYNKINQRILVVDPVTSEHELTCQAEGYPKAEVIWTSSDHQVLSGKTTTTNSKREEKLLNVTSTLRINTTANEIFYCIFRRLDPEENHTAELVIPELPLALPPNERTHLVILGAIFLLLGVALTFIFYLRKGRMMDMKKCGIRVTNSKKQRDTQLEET
Chain of recombinant human PD-L1 protein carrying a hFc label (human) (Q9NZQ7 19-238): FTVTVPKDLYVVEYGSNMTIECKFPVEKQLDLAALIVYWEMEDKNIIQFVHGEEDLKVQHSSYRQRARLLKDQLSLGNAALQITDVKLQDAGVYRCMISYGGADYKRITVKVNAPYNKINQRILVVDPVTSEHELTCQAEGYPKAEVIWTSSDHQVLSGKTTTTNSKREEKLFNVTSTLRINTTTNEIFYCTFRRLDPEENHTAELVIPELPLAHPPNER
Chain of human PD-L1 on IFNγ-stimulated A375 cells (human) (Q9NZQ7 19-290): as the sequence (Q9NZQ7 19-290 limits assumed) above

## atezolizumab-mIgG1 (mIgG1 subtype) (antibody)
[1]
  EC50: 2.02 nM
[2]
  EC50: 0.984 nM
[3]
  IC50: 1.61 nM
[4]
  EC50: 0.121 nM
[5]
  IC50: 4.39 nM
[6]
  IC50: 6.32 nM
